Results from the domain aggregation screens of Martell et al. (2025).

Assay: soluble fraction after stress (log2 fold change); higher = more stays soluble; pooled small domains, quantitative proteomics
Conditions: stress: pH 4
Procedure, shortened: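 Values are on a log2 scale, where higher means more of the domain stayed soluble after pH 4 stress. They are fold changes in the soluble amount of each domain from pooled custom libraries, measured by high-throughput quantitative proteomics. The fold change is taken to reflect aggregation propensity.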

| Sequence | soluble fraction (log2) |
| --- | --- |
| HMFVGVDMAVKEEIGKEGVAFTDLRPAGKVSIGDDVYDAVSETGAFITRGTSVRVLKYQAGQVYVVK | 0.354 |
| HMINPASEKQLSFANSLIAKKEGGTETLNHYLHNRKVSSLEELDRKDVSEIINALKFAKEVT | 0.0908 |
| HMLTRYNVNYYYNGEILQRRKVAEGSAAERITYLSGSLEVTDWYTEADLLRKYDFTEPVTGDLNLYAFARI | -0.556 |
| HMPHFFISTSDVNQDIITVSDKENFHHIARVLRSKVGETLLLVDENRTQYKVVIQNIDSKSITTKVVETLK | -0.697 |
| HMEYDYKVIDFFKDYYSYLNYQEIEPNILDKQLTTLTEEESAKIAGIMKLDYEDFTRGIEIVTGS | -1.41 |
| HMSSGSLLTEREIEILAEMAKGLTNKAIGEKLFISVATVKTHILNIYRKLEVSSRVTAVNKAKQMRL | -0.11 |
| HMDQINNDLRKLIEFLPEDQKTVLKMRHFQEMSFKEIAKATGVSINTALGRMRYALINLRKLIEENEI | -0.903 |
| HMSVADNALSRQAIESRIALFIQNEDPNHPRSDADIQKELAQAGVVISRRAITKYRNHLHIPSASLRRR | -0.12 |
| HMQGATVYIKSDDIGKTTNEQGSFNFDKLKKNRYTLEISFIGYETKNLQAYTDRENIVQLNRKS | -0.527 |
| HMHQAADFAGFITFNKDGVEQFSFGKYKNQTVVSVLEKDPGYYSWIQNADFPLYTKKILTAIRLAM | -0.0054 |
| HMDSYADVLSDYRGKYKTNTISGLKGLRDKIREDMLAAADSLDFEKAALLRDEMNDLNKKIELKEKT | -0.486 |
| HMIAIGDDARLDDAARFFRIAEDSYAAGDYRKSKENYIEARKLYAELGDHEKVNLINSKISAIDSIT | -0.0121 |
| HMMVIMRANATEPQIANVVAYVEKNGLNAHLSRGAERTVIGVVGDIRRVSKETFELMDGVDSVMRIS | -0.734 |
| HMEDQITNQQFTMTKQSILDLLVKKSYPPYELANELHLKKEEVLPIIRFLIAENEIHFKDGMLHLPH | -0.0688 |
| HMTVSLTDVPFVPEILDRLERPELDVLLAILNGATNTFDLAAKTGRSRDELDEVLDRLTTLGLIER | -1.12 |
| HMQTQYIVDTKTTLLVRTGPGKSNSQFGRLKNGETINVYAIKNGWAEISYNGKTGYVSEQYIKLA | 0.327 |
| HMDYKSTLQELVQTVKKSVTYEVIDEEGPSHNKTFTSIVKIDGIVMGKGTAGSKKASEQEAARDALSKR | -0.0966 |
| HMEETLLLRESVRSALAMLAPTLRITLEMYVYRQLSPTEIALRSGVSISMVRRRLGYGLYKLRTQLIDA | -0.394 |
| HMSQIAENNQKYVGTIQKVLVEGTSKNNDDMLTGRTDSNKVVIFEGDKKLIGNMVELKIVSEHMWYLKGEL | -0.0811 |
| HMSNHYETLGVEQTASVDEIKKAYRRLSLQYHPDRNTTSDAVGKFQKINDAHEILSDKQSRTEYDMQLK | 0.0857 |
| HMNQDQDLSRIKGIGPEMVDRLHAQGVETLEQIAAMQMEQLKKLDQQISGNGKAVREQWAEQAKQLLTT | -0.331 |
| HMLKAKKIPVSDLEKFKGIVAEDVVSKAKALILPRGSNLSWLSNVAKKNLIAKLKAEGIEYISVYSS | 0.0669 |
| HMQITNEGQIKLVISEVLNENQEQKKQYLSGKEQVLGYLIGKVMQKTKGKANPKLVNDLMIKELS | 0.217 |
| HMQRDTIAISAIPTAIKTYLSSTYPTDTLVHAFVNKDQSIVVISKNIDFYATSFSTANAFIKRIQLPA | 0.156 |
| HMKSGLLNLSTRKQEKIKQALLSEFSNVSLLEAKVANIVTLAEISRGSFYTYFEDIYDAYQWLASI | 0.22 |
| HMSATEPVHFDPNKSPEDMTVEELQAGILAKMANNGPVSDQMKKTVNENIWHDSLVNWLKSF | -0.0828 |
| HMEDIQPSVIFQNNMIDGFKKFGVSFLQNRRNVNVNTLNGLASAGTYPKWQQLLVNKISYIDMLLSTGG | -0.137 |
| HMKRSVIVTAERAEVRQKADEGSALVFEAEKNVSLEYLEAAPGGWVKVRHLDGQSGFVRGNQI | -0.901 |

| Sequence | soluble fraction (log2) |
| --- | --- |
| HMKFTSEKDISLLELVKAKMGFVSNTKARNVIKIGQIMVSGKVIKIPSTLIKPGTEVELARRV | 0.32 |
| HMGNIADARRDASYVFLIGEWAKSSNLTEKKLAGLIQSNHLDIKYGITVTDVIADIRKYKNDPTYNPF | 0.312 |
| HMSTANISIEQAKEIALNHANLTSNQVIFSRTELDYDNGIQKYEVEFYYNNREYSYEINANTGDILGYEQ | -0.417 |
| HMFELVKISENIPIRDLAETLKTTPNEIIKELMVFGVLANINQTLNFDLASKVADKLGFEVELL | -0.363 |
| HMETYHIQMKGDPSKGIVGFSQLDMVIDKIKRLETEKGIAPYELEVLDGDTMEKYSGEEFLTMHE | -1.21 |
| HMPPGQIVNEALQRAGNSTPTGTAISAQDDIKLYTSALAELATQGDTSSASVAKLREALQTAQVAFYNAV | 0.0927 |
| HMEERDMKGSISDLVERYADQLTDEQLEEIVLGIKNGLLEEDVKSYFFLPAEDMRRIRTALEQVR | -1.6 |
| HMYAHLGKNLEVVINKALAQEDPEKKAGFAHHIAYYMKLAYSNWHKELVHDDAIRSELDTITGGELEFSN | -0.0696 |
| HMKSLLSRREQEVLELVSRGFSYSEIAELKNLSVHTIQTHIKSLYGKLEVHSKMEAVLEATRMGLLPQ | -1.12 |
| HMYNIDSFMTKNYPTMERFTLSDVQKKYKTTFGLFVKQDELASMIEKTGRFNITSSKNVKYVNR | 0.313 |
| HMEVPQKTLEILEPWRGRKGFLIPVLQAVQHEFGYVPKEAIETVSREMKMPTAEIYGVVTFYAQFH | -0.513 |
| HMKEGGGYGQLRLKEAAIQHAFDLQNALQFIAERGYQAHENTTLKEAANALNLKPIELLELLKSSQ | -0.574 |
| HMTANPSTEEIMARVEAIPLPIKRLPPGQIVQAQTVAATVLRSNPGLDLAKAWKLAYATVTGQE | -0.00256 |
| HMKPAFTPYVVKVTADVLNVRSGPGTNYGITTKVKKGEAYTIVEEKNGWGKLKSGAGWISLEYTVK | -0.0552 |
| HMNNKVAVKSGYYFEIFNKEEIPTTLAKTKQKVKINNIQYDLYQGMSLDDERKIDDMFGDRMGYSIDDY | -1.9 |
| HMKTEIKSPLPGIVLKIFVRTGEYVDKNQRLFSLEAMKMENEIKAERAGVIAGIRISEGQSVLQDEVIMEM | -0.288 |
| HMDAYLPETVQKLLDVMDFDVPYSAAQLMEKLGLKSRASFRKLYLLPALEKNLIAMGVPDKPTSRNQTYIR | 0.169 |
| HMKYSYAELTKLQEQIAQDRNAPLTVPNALGIGLDERNNVIEITVNIADEAAAKAYYLQKYGDRISLKTTD | -0.243 |
| HMGTHVVQEGEYLDLIIEKTIPGSPIRKDLLRKAFVKLNPSAFGGRGNPNYIFARKKLKVPSVEDLKAVIF | -0.36 |
| HMIESLKGILHKKDPTIAIIDVGGVRLSVNITLSTYEKLEEINSSIELLTYFNVREDAMELYG | -0.377 |
| HMPTLLGYKHILSAWNPDTNTVFRTSYGYDGEYGSREEAMQALIKMIQEGGKATPRGIEESEVPIY | 0.0029 |
| HMSNETKSAILNFAEKHHDFNIDDLFESLSKSMDINRSSLLWHLFKLVNSNVLIRTGRGMYAKV | -0.839 |
| HMIPESVQGIEEFLATGALKGIGKKTAAAIVHKFGKDTLRIMEEEPERLAEVSGIGEKKAAAIGEAFALH | -0.236 |
| HMDDSSLFGRHTGIGFIVDDIDSGYQTLLAKGVSFEMPPTEQPWGGILALMKDPDGNIFYLD | -0.488 |
| HMDAATDAIKAEVRALLEMANAQGIDTESIMLEAHEQTRNATEQDYYEAAKSALEAAIAGSNRDR | -0.319 |
| HMGDLVFDFVHGVHKAAEVEKELVMQALRFTHGNVSRAARLIGMQRSSLRYRIERYRLDAFVMEVAN | -0.0309 |
| HMGLAGVQSDVKVSFDGDLLVVTSDIARSFNLFAVDGRLIRSVNLIAGRNEIRGLERGFYLAEKQKIFV | -1.36 |
